Measured values from the RNAGym collection of RNA variant scans (doi:10.7554/elife.80360).

B1: HDV Ribozyme (parent)
chain: GGCCGGCAUGGUCCCAGCCUCCUCGCUGGCGCCGGCUGGGCAACAUUCCGAGGGGACCGUCCCCUCGGUAAUGGCGAAUGGGACCCA

Variants of: B1
Assay: self-cleavage, relative activity (ratio to wild type); higher = more cleavage; co-transcriptional

Variant	self-cleavage
GGCCGGCAUGGUCCCAGCCUCCUCGCUGGCGCCGGCUGGGCAACAUUCCGAGGGGACCGUCCCCUCGGUAAUGGCCAAUGGGACCUA [G76C C86U]	0.886
GGCCGGCAUGGUCCCAGCCUCCUCGCUGGCGCCGGCUGGGCAACAUUCCGAGGGGACCGUCCCCUCGGUAAUGGCCAAUGUGACCCA [G76C G81U]	0.475
GGCCGGCAUGGUCCCAGCCUCCUCGCUGGCGCCGGCUGGGCAACAUUCCGAGGGGACCGUCCCCUCGGUAAUGGCGCAUGGGAACCA [A77C C84A]	0.128
GGCCGGCAUGGUCCCAGCCUCCUCGCUGGCGCCGGCUGGGCAACAUUCCGAGGGGACCGUCCCCUCGGUAAUGGGGAAUGGGACUCA [C75G C85U]	0.237
GGCCGGCAUGGUCCCAGCCUCCUCGCUGGCGCCGGCUGGGCAACAUUCCGAGGGGACCGUCCCCUCGGUAAUGGCGCAUGGCACCCA [A77C G82C]	0.116
GGCCGGCAUGGUCCCAGCCUCCUCGCUGGCGCCGGCUGGGCAACAUUCCGAGGGGACCGUCCCCUCGGUAAUGGUUAAUGGGACCCA [C75U G76U]	0.271
GGCCGGCAUGGUCCCAGCCUCCUCGCUGGCGCCGGCUGGGCAACAUUCCGAGGGGACCGUCCCCUCGGUAAUGGCUAAAGGGACCCA [G76U U79A]	0.984
GGCCGGCAUGGUCCCAGCCUCCUCGCUGGCGCCGGCUGGGCAACAUUCCGAGGGGACCGUCCCCUCGGUAAUGGGCAAUGGGACCCA [C75G G76C]	0.189
GGCCGGCAUGGUCCCAGCCUCCUCGCUGGCGCCGGCUGGGCAACAUUCCGAGGGGACCGUCCCCUCGGUAAUGGCAAAUGGGACCUA [G76A C86U]	0.92
GGCCGGCAUGGUCCCAGCCUCCUCGCUGGCGCCGGCUGGGCAACAUUCCGAGGGGACCGUCCCCUCGGUAAUGGGGAAUGGGACCCC [C75G A87C]	0.073
GGCCGGCAUGGUCCCAGCCUCCUCGCUGGCGCCGGCUGGGCAACAUUCCGAGGGGACCGUCCCCUCGGUAAUGGUGAAUGGGGCCCA [C75U A83G]	0.166
GGCCGGCAUGGUCCCAGCCUCCUCGCUGGCGCCGGCUGGGCAACAUUCCGAGGGGACCGUCCCCUCGGUAAUGGCGCAUCGGACCCA [A77C G80C]	0.179
GGCCGGCAUGGUCCCAGCCUCCUCGCUGGCGCCGGCUGGGCAACAUUCCGAGGGGACCGUCCCCUCGGUAAUGGCGCAUAGGACCCA [A77C G80A]	0.0378
GGCCGGCAUGGUCCCAGCCUCCUCGCUGGCGCCGGCUGGGCAACAUUCCGAGGGGACCGUCCCCUCGGUAAUGGCGCAUGGGACCCG [A77C A87G]	0.208
GGCCGGCAUGGUCCCAGCCUCCUCGCUGGCGCCGGCUGGGCAACAUUCCGAGGGGACCGUCCCCUCGGUAAUGGUGAAUGGGACCUA [C75U C86U]	0.0563
GGCCGGCAUGGUCCCAGCCUCCUCGCUGGCGCCGGCUGGGCAACAUUCCGAGGGGACCGUCCCCUCGGUAAUGGAGAAUGGUACCCA [C75A G82U]	0.101

Variant	self-cleavage
GGCCGGCAUGGUCCCAGCCUCCUCGCUGGCGCCGGCUGGGCAACAUUCCGAGGGGACCGUCCCCUCGGUAAUGGAGAAUGGCACCCA [C75A G82C]	0.188
GGCCGGCAUGGUCCCAGCCUCCUCGCUGGCGCCGGCUGGGCAACAUUCCGAGGGGACCGUCCCCUCGGUAAUGGCGGAUGGGACGCA [A77G C85G]	0.655
GGCCGGCAUGGUCCCAGCCUCCUCGCUGGCGCCGGCUGGGCAACAUUCCGAGGGGACCGUCCCCUCGGUAAUGGCCUAUGGGACCCA [G76C A77U]	0.399
GGCCGGCAUGGUCCCAGCCUCCUCGCUGGCGCCGGCUGGGCAACAUUCCGAGGGGACCGUCCCCUCGGUAAUGGGGAAUGGGAGCCA [C75G C84G]	0.282
GGCCGGCAUGGUCCCAGCCUCCUCGCUGGCGCCGGCUGGGCAACAUUCCGAGGGGACCGUCCCCUCGGUAAUGGCAAAUGGGUCCCA [G76A A83U]	0.875
GGCCGGCAUGGUCCCAGCCUCCUCGCUGGCGCCGGCUGGGCAACAUUCCGAGGGGACCGUCCCCUCGGUAAUGGCCAAUGGGUCCCA [G76C A83U]	0.464
GGCCGGCAUGGUCCCAGCCUCCUCGCUGGCGCCGGCUGGGCAACAUUCCGAGGGGACCGUCCCCUCGGUAAUGGCCAAUGGGGCCCA [G76C A83G]	0.554
GGCCGGCAUGGUCCCAGCCUCCUCGCUGGCGCCGGCUGGGCAACAUUCCGAGGGGACCGUCCCCUCGGUAAUGGGGAAUGGAACCCA [C75G G82A]	0.208
GGCCGGCAUGGUCCCAGCCUCCUCGCUGGCGCCGGCUGGGCAACAUUCCGAGGGGACCGUCCCCUCGGUAAUGGCCAAUUGGACCCA [G76C G80U]	0.256
GGCCGGCAUGGUCCCAGCCUCCUCGCUGGCGCCGGCUGGGCAACAUUCCGAGGGGACCGUCCCCUCGGUAAUGGCGCGUGGGACCCA [A77C A78G]	0.151
GGCCGGCAUGGUCCCAGCCUCCUCGCUGGCGCCGGCUGGGCAACAUUCCGAGGGGACCGUCCCCUCGGUAAUGGCCAAGGGGACCCA [G76C U79G]	0.617
GGCCGGCAUGGUCCCAGCCUCCUCGCUGGCGCCGGCUGGGCAACAUUCCGAGGGGACCGUCCCCUCGGUAAUGGCCAAAGGGACCCA [G76C U79A]	0.649
GGCCGGCAUGGUCCCAGCCUCCUCGCUGGCGCCGGCUGGGCAACAUUCCGAGGGGACCGUCCCCUCGGUAAUGGCCAACGGGACCCA [G76C U79C]	0.643
GGCCGGCAUGGUCCCAGCCUCCUCGCUGGCGCCGGCUGGGCAACAUUCCGAGGGGACCGUCCCCUCGGUAAUGGCUAAUGAGACCCA [G76U G81A]	0.506
GGCCGGCAUGGUCCCAGCCUCCUCGCUGGCGCCGGCUGGGCAACAUUCCGAGGGGACCGUCCCCUCGGUAAUGGUGUAUGGGACCCA [C75U A77U]	0.374
GGCCGGCAUGGUCCCAGCCUCCUCGCUGGCGCCGGCUGGGCAACAUUCCGAGGGGACCGUCCCCUCGGUAAUGGGGGAUGGGACCCA [C75G A77G]	0.0755
